The record followed here is a protein production outcome set (Wang et al. 2014).

The nature of this data set: label from the status in PepcDB records.

Take “MDWLLTPGPVRLHPKALEALARPQLHHRTEAAREVFLKARGLLREAFRTEGEVLILTGSGTLAMEALVKNLFAPGERVLVPVYGKFSERFYEIALEAGLVVERLDYPYGDTPRPEDVAKEGYAGLLLVHSETSTGALADLPALARAFKEKNPEGLVGADMVTSLLVGEVALEAMGVDAAASGSQKGLMCPPGLGFVALSPRALERLKPRGYYLDLARELKAQKEGESAWTPAINLVLAVAAVLEEVLPRLEEHLALKAWQNALLYGVGEEGGLRPVPKRFSPAVAAFYLPEGVPYARVKEAFAQRGAVIAGGQGPLKGKVFRLSLMGAYDRYEALGVAGMFREVLEEILPAS”: the protein production entry is “not failed”.
The same measure for “MDYFRSPDGPMFMIICGEGPCSGIANDYINESLNKKLNISSGGSDNPWFFFGISYSGALSAWFRLKFPHLTCGSLASSAVVRAIYEFSEFDQQIGESAGQECKLALQETNKLLELGLKVKNKAVKSLFNATELDVDADFLYLTADAAVMAFQYGNPDKLCVPLVEAKKNGSDLVVTYSTYVREYCMRIWGLRVRTYNRKHLRNTVVTADSAYRLWWFQACTELGYFQVAPKYDSVRSHQINTTFHLDLCKSLFGKDVYPKVDATNLYYGGDRLAATKIIFTNGSEDPWRHASKQNSTHEMPSYIIKCRNCGHGSDIRGCPQSPMVIEGKSNNCSLPDYVNKVRQQMVEHIDLWLSECRQSIRSSI”: “not failed”; for “MDYPVWQLWGINGGLLVAIISVLHVFVAQFAVGGGFLLVHAATRAERAGSAEATFWVKRFTRFFLLLSMVFGGVSGVGIWVIISLISPAATSLLVHRFVYAWATEWVFFLGEIVALLVYYYGFGKMRFEDHRNVGLLYGLFAYLSLFMINGIITFMLTPGAWMQTQGFWDGFFNPTFWPSLLFRSALCAMLSGLFGLVWASLIDDERARELMTGVTRLWALVPIPFMAVGAWWYLGALPAPQLEMVLRRTADIRPFLEAFPWVLAALMVGGLAFFTRLPSGARVPVAALLLVLGLCQVGTFEWVRETGRRPWIVHGVIWSNGITPEAGAKSDLEGMLKVARWSGVKQVAEANMHEAGRELWQVQCANCHGLGAPMIDILPRIANRPLTGVEALITGQGALQGYMPPFVGTPAERRALATYLVNERDARRH”: “failed”.
The same measure for “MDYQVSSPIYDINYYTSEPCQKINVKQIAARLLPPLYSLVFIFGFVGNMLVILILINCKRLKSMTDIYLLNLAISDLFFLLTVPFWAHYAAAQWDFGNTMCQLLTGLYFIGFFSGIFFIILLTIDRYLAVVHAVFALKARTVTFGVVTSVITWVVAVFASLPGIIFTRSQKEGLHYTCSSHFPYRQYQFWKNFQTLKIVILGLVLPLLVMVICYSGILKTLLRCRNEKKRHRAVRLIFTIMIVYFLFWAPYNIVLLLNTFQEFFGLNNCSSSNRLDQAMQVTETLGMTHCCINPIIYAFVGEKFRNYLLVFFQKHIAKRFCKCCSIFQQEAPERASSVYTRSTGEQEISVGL”: “not failed”; for “MDYSIADCLAANQYTTACCIVQSWTRGEVLLSSYQRVALFIFFDSIEKDLVTHIRSLAGLVTTGFLSAQERDKAAQRAEKSDEPGTVAKDDFELLYQLDLGDKIAIAQRLKQHFGDAFRKHFSAKAASLQAAVPVRNSVMHGRPLTVEEHATAFALANDLVKSNGFWPVLHKALVDYNTDPEAITRRAVSFLEHPSEGGIFHNLPLPDYDDTGFVPRPQLEQELKKKILSRHPVVTVLGDGGNGKTALTVQALYSLVNSGDHDFDAIVWVSAKSSKLTVGEIQRIEHAITTSMGLFEEVVGIFEEDKSNPMSRVRQLLENNKILLAIDNLETVLDDTIRDFVSDIPGQSKVVLTSRIPVGGDLTVEVKPLTDNEGEIYLRALIKSYSIKTLSSLRQDELRYFASRLERRPLLLKWFCMGVIAGLPASKIVSNPEMALRFCLENVFDALSPDATMTLSLMSILPRAVSLGVLHYVSSTDIRKLEAGVAELLKFSILETENQSGYELNYRIKPFARAYVARILRLTAEAQEAVIRKFRGLSFAYQAERGAEGQEKYNFRNFTVRSISEALAAGKLREAVKLAYNDEFEAANAIIDTLKVSNHDYFEVFRTDAFIRFRQHDFAGATDAYRSALELSPETPQLYFFFGGFLLRGYGDCPAAIAQFEEALKRDPESTDVKRELARAKMFDYDFEGAMKILSLERTKPLSNMRTQLIFADLQTQNFQRMITHKSAVGIDADLEAPCSAFADFLVTLDPRIVDSKMTEHLRKARSSIVQALHTRSVRAGARVVALLDKLIGELEASRDDTTDHCASASGLLGTLKEKGRKPNFGFLVDRSNREYFVARAMVSDLVWEGLEGGKIASFEVELDNQGRPRATNVYLI”: “failed”; for “MDYVVSYLSIEFGLCFILFFVLYWGLGFSLRLQNVLLLVASYAILASFSLNFLYILLGYTALVYLLGLLSQRYPGRGWVNGLMLLLVLGAFYLFKYQDFFTSTVQNAFAQFGVEVSLPLLEVLLPVGLSFYAFHSVSYLVSINRRELTPGSPFDLALYLAFFPSLIAGPVNRAIPMLAQINPPQLRQVLEPQRALGLIAVAVVKLFFLSSWLANEWVDPVFDSPVAYSAEQILRAVYGYSFLIYFNFSGYTDLVTGIALLLGFRLPQNFNYPYAARNLKEFWGRWHISLSTFIRDYVYIPLGGNRGPVWRGNLNMLLAMLISGLWHGASANFIIWGALHGIGLALYKLCSPLLARGPSWIGADLMARLLTFHYVAFAWIFFRCATLSDAMDMLKGLGELSLGGLLGGGASLLGCLLFVAFYPRIVALLRRLFDAATGLPWLFYPVPLGLFICVVIFASPSGVPGFIYASF”: “failed”.
Regarding “MEAETKTLPLENASILSEGSLQEGHRLWIGNLDPKITEYHLLKLLQKFGKVKQFDFLFHKSGALEGQPRGYCFVNFETKQEAEQAIQCLNGKLALSKKLVVRWAHAQVKRYDHNKNDKILPISLEPSSSTEPTQSNLSVTAKIKAIEAKLKMMAENPDAEYPAAPVYSYFKPPDKKRTTPYSRTAWKSRR”, the protein production result is given as “failed”.
The same measure for “MEAIDQLVGQWQKDGLSPSQVAEKFSKCVLYVTCEPCIMCASALSFLGIKEVYYGCPNDKFGGCGSILSLHLGSEEAQRGKGYKCRGGIMAEEAVSLFKCFYEQGNPNAPKPHRPVVQRERT”: “failed”; for “MEAIRVFGPKLGSRLSIRSHTTAFPACKLSRFPLTSFPGKHAHLVLLKATTIPLASGDKENNRKFEKLGPSEWGNQFLFAHVDLSEMDALEREIEALKPKVRDMFMSFKGMKSNKKNLFLIYLLVSLGLAHHFEDEIEESVKGCSQEMVEMMDGENDLYTVSIIFWVFRTYGHNISSDIFNRFKGHNGKFKECLATDAKGILSLYEAAHMGTTTDYILDEALSFTLSYLESLAANGTCKPNLVRRIRNALGLLQNKNVEILVAKEYIRFYEQEEDCDKTILEFSMLNLKFLQLHYLQELKLLTKWYKEQDFESKLPPYYRDRIVELHLATLAYINPKYSRVRIILTMIYTIQIILDDTCDRYASLREVESLAATIERWDHNDHAMEGLPDYLKSVAKFIFHTFQEFEREVSSESGGSYSLKATIEDCKRMMRSNLQLAKWAVTGHLPSFDEYLDVAGVEIAVYFTVAGILLGMENINKKEAYEWLIFRDKLVRAMSTKARLVNDLFGYKDDMRRGYVTNSINCYKKQYGVTEEEAFRKLHQMVADGDKMMNEEFLKPINVPHQVLKAVLDTLRAINICYDNEDGFTRLNGNLKNYITSMYVDL”: “failed”; for “MEAKLSSIEIPVGQDELSGTLLTPTGMPGVLFVHGWGGSQHHSLVRAREAVGLGCICMTFDLRGHEGYASMRQSVTRAQNLDDIKAAYDQLASLPYVDAHSIAVVGLSYGGYLSALLTRERPVEWLALRSPALYKDAHWDQPKVSLNADPDLMDYRRRALAPGDNLALAACAQYKGDVLLVEAENDVIVPHPVMRNYADAFTNARSLTSRVIAGADHALSVKEHQQEYTRALIDWLTEMVVGRRIALAKEVVAARKQLLKEQQGDAVSLPGQGSREFRGDIRAVEKTSA”: “not failed”.
On to “MEAVLNELVSVEDLKNFERKFQSEQAAGSVSKSTQFEYAWCLVRSKYNEDIRRGIVLLEELLPKGSKEEQRDYVFYLAVGNYRLKEYEKALKYVRGLLQTEPQNNQAKELERLIDKAMKK”, for which the protein production entry is “not failed”.
Take “MEDAAAPGRTEGVLERQGAPPAAGQGGALVELTPTPGGLALVSPYHTHRAGDPLDLVALAEQVQKADEFIRANATNKLTVIAEQIQHLQEQARKVLEDAHRDANLHHVACNIVKKPGNIYYLYKRESGQQYFSIISPKEWGTSCPHDFLGAYKLQHDLSWTPYEDIEKQDAKISMMDMLLSQSVALPPCTEPNFQGLTH”: the protein production result is listed as “failed”.
The same measure for “MEDETLGFFKKTSSSHARLNVPALVQVAALAIIMIRGLDVLMIFNTLGVRGIGEFIHRSVQTWSLTLVFLSSLVLVFIEIWCAFSLVKGRRWARWLYLLTQITAASYLWAASLGYGYPELFSIPGESKREIFHSLMLQKLPDMLILMLLFVPSTSRRFFQLQ”: “failed”; for “MEDGKQAINEGSNDASPDLDVNGTILMNNEDFSQWSVDDVITWCISTLEVEETDPLCQRLRENDIVGDLLPELCLQDCQDLCDGDLNKAIKFKILINKMRDSKLEWKDDKTQEDMITVLKNLYTTTSAKLQEFQSQYTRLRMDVLDVMKTSSSSSPINTHGVSTTVPSSNNTIIPSSDGVSLSQTDYFDTVHNRQSPSRRESPVTVFRQPSLSHSKSLHKDSKNKVPQISTNQSHPSAVSTANTPGPSPNEALKQLRASKEDSCERILKNAMKRHNLADQDWRQYVLVICYGDQERLLELNEKPVIIFKNLKQQGLHPAIMLRRRGDFEEVAMMNGSDNVTPGGRL”: “failed”.
With “MEDIVHKYKVSVIICFFNSAETLDAMIKDAVNQTLKDKEIILIDDGSYDGSLEIAEKYANKYSFIKIFSQKNMGLSASRDKGLSEAQGEYVIYWDGDDSVESTMLEVLYNRAKADNSDIVCSQFYIYFLAINVKRKSLLPFPNYPLTGKEAFKNLLFTVYATFGRKNFVVGTLWDKLIRRELILKNNIRQQNVVFEDIVFVMQIFLKASKVSFVNNYFYTNFQRMGSMSSSISVLHKSKLSLNTMETLLKREGIFNECQNLYKKFFLQFYYFISFKQIYIISWNISDKLVYRAYKEKLISVLDEIKGLSEFQDCYEYAKSFGFNEIQILPRIMLKIWNFSSRLYVNFSIFIYKFFIKN”, the protein production entry is “failed”.
The same measure for “MEDIYKLIDDINLQKIENLDSRVNEALSSNNDDALFILGETLYNFGLTPQGLEVFRTLYHKYPDESELLIYFIEGLMSENQTDEALEYLAQVEPSTEKLMLEADLYQQINMLEVAIDKLQEALDLEPNDPIIHFALAELLYYDGQYLRATREYETVLETGEYEVNGVNIFSRMADCSLQSGNYSDAISLFDEINEEEMNSEDYFKKSIAYEKNDLTQEAIKIMQTLLSKDPDFIQGYFYLQSLFENEKNYPDAIETGKEGLRLSQFYKELMVSTGSLEIEHGDANEGVELLKQALEVDNAYHEPLLILSDLYRNEEDYESIIQLLTYVDEEDLDPIFMWHLAYAYGQEERDKEAQHFFELAYPTLQTQVEFLSDYYFYLLEIGQKEKAILILNQLLEIDPSNENWHDESMRLQI”: “failed”; for “MEDLKGSHGLGLKIQLSRVCEVKPEVKPLPAGETPSCGFARLDRRCLCGHRATLIPLGLPIAPRPPPSRCPFLKPSLPYVPGPEYGKQRPSCPVPIMSEVTKELLELVWGTKSSPGLSDTIFCRWTQGFVFSDSEGSALEQFEGGPCAVIAPVQAFLLKKLLFSSEKSSWRDCSEDEQKELLCHTLCDILESACDSSGSYCMVSWLRGRTTEDAARISGSPAQSSCQVGHSSALAVEELGFERFHALIQKRSFRTVSELKDAVLDQYSMWGNKFGVLLFLYSVLLTKGIENIKNSIEDANEPLIDPVYGHGSQSLINLLLTGHAVSNVWDGDRECSGMQLLGIHEQATVGFLTLMEALRYCKVGSYLKSPKFPIWIVGSETHLTVFFAKDMALVAPEAPSEQARRVFQTYDPEDNGFIADTLLEDVMKALDLVSDPEYINLMKNKLDPEGLGIILLGPFLQEFFPDQGSSGPESFTVYHYNGLKQSNYNEKVMYVEGTAVVMGFEDPMLQTDDTPIKRCLQTKWPYIELLWTTDRSPSLN”: “failed”.
